Source: patent US8333970B2, “Methods of monitoring the efficacy of anti-CD40 antibodies in treating a subject having an inflammatory or autoimmune disease” (Novartis AG, priority 2005, dated 2012)
“Also recorded” adds a separate entry of the source.

What was measured:
[1] = test system: CD40-expressing target cells; experiment: Antibody dependent cellular cytotoxicity (ADCC); assay type: cell-based; conditions: native antibodies
Text: (§1) 2, 2000, and PCT International Application No. PCT/US01/30857, also titled “Human Anti-CD40 Antibodies,” filed Oct. 2, 2001, both of which are herein incorporated by reference in their entirety.
Clones from 7 other hybridomas were identified as having antagonistic activity. Based on their relative antagonistic potency and ADCC activities, two hybridoma clones were selected for further evaluation (Table 1 below). They are named 131.2F8.5.9 (5.9) and 153.8E2.D10.D6.12.12 (12.12).

[2] = biological target: soluble CD40 (Homo sapiens, UniProt P25942); experiment: ELISA-type assay, binding to soluble CD40; conditions: ELISA-type assays
Text: as §1

[3] = biological target: cell-surface CD40 (Homo sapiens, UniProt P25942); experiment: Flow cytometric (FACS) assay of CD40 binding and CD40-ligand blocking
Text: as §1

[4] = test system: B cells from normal human subjects; experiment: In vitro proliferation of normal human B cells / lymphocytes; assay type: cell-based
Text: as §1
(§2) 4, 2003, Nov. 26, 2003, and Apr. 27, 2004, and assigned U.S. Patent Application Nos. 60/517,337 , 60/525,579, and 60/565,710, respectively, and International Patent Application No. PCT/US2004/037152, also entitled “Antagonist Anti-CD40 Monoclonal Antibodies and Methods for Their Use,” filed Nov. 4, 2004; the contents of each of which are herein incorporated by reference in their entirety.

[5] = test system: cancer cells from NHL and CLL patients; experiment: In vitro CD40 ligand-mediated proliferation of patient cancer cells; assay type: cell-based, human
Text: as §2

[6] = test system: primary cancer cells from NHL patients; experiment: ADCC on primary cancer cells; assay type: cell-based, human; conditions: in vitro
Text: as §2

[7] = test system: monocytes; experiment: CD40L-induced cytokine secretion, Meso Scale Discovery multi-array; assay type: cell-based, human; conditions: monocytes, Donor 1, 24 hours
Protocol: (§3) Cells (1×10^5 cells per well) were cultured in a 96-well plate in the presence or absence of CD40L ([…], formaldehyde fixed CHO cells, 2×10^5 per well). […] Production of hIL-6, hIL-8, hIL-10, hTNF-α; hGM-CSF, hIL-1b, hIL-12p70, MCP-1, and MIP-1β beta was measured by Meso Scale Discovery® multi-array system (Meso Scale Discovery, Gaithersburg, Md.).

[8] = test system: normal B cells; experiment: as above; assay type: cell-based, human; conditions: normal B cells
Protocol: as §3

Sequence of cell-surface CD40 (P25942 21-277): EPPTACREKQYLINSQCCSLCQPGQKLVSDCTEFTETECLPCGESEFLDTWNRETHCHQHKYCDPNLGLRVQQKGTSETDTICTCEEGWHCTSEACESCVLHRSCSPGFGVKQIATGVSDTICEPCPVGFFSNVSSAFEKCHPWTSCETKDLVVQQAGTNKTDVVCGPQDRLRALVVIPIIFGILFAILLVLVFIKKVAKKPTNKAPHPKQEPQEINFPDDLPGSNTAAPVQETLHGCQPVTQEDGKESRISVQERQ
Sequence of soluble CD40 (P25942 21-193 limits assumed): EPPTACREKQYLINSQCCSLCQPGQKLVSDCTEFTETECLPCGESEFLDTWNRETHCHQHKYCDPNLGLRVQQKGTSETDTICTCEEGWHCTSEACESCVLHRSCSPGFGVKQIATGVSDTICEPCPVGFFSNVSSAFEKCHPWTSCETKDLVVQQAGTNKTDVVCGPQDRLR

binding to soluble CD40 [2]	specific binding to human CD40 ([3]; FACS analysis)	Molecule	ADCC activity, killing of CD40-expressing target cells [1]	displacement of CD40-ligand pre-bound to cell surface CD40 ([3]; flow cytometric assays)	prevention of CD40-ligand binding to cell-surface CD40 ([3]; flow cytometric assays)	effect on CD40 ligand-mediated proliferation of normal B cells ([4]; in vitro)	induction of proliferation of human lymphocytes (agonist activity) ([4]; lymphocytes from normal subjects, antibody alone)	CD40 ligand-mediated proliferation of cancer cells [5]	killing of primary cancer cells by ADCC [6]	CD40L-induced hGM-CSF secretion, folds of induction over background [7]	CD40L-induced hIL1-b secretion, folds of induction over background [7]	CD40L-induced hIL-12p70 secretion, folds of induction over background [7]	CD40L-induced hGM-CSF secretion, folds of induction over background ([8]; Donor 1, 24 hours)	CD40L-induced hIL-1b secretion, folds of induction over background ([8]; Donor 1, 24 hours)	CD40L-induced hIL-12p70 secretion, folds of induction over background ([8]; Donor 1, 24 hours)	CD40L-induced hIL-1b secretion, folds of induction over background ([8]; Donor 2, 24 hours)	CD40L-induced hGM-CSF secretion, folds of induction over background ([8]; Donor 3, 24 hours)	CD40L-induced hIL-1b secretion, folds of induction over background ([8]; Donor 3, 24 hours)	CD40L-induced hIL-12p70 secretion, folds of induction over background ([8]; Donor 3, 24 hours)
bind soluble CD40	bind specifically to human CD40	CHIR-5.9: fully human anti-CD40 monoclonal antibody of the IgG1 isotype, hybridoma 131.2F8.5.9, ATCC PTA-5542, SEQ ID NO:6 and 7	have ADCC activity; also recorded: able to kill CD40-expressing target cells	displace the pre-bound CD40-ligand; also recorded: can compete off CD40-ligand pre-bound to cell surface CD40	prevent the binding of CD40-ligand to cell-surface CD40; also recorded: can prevent CD40-ligand binding	act as antagonist anti-CD40 antibodies; also recorded: inhibit in vitro CD40 ligand-mediated proliferation of normal B cells	do not induce strong proliferation	inhibiting in vitro CD40 ligand-mediated proliferation of cancer cells from NHL and CLL patients	kill primary cancer cells from NHL patients by ADCC										
		CD40L: CD40 ligand used as stimulus, presented on transfected, formaldehyde fixed CHO cells (protein, expressed on fixed CHO cells) MIETYNQTSPRSAATGLPISMKIFMYLLTVFLITQMIGSALFAVYLHRRLDKIEDERNLHEDFVFMKTIQRCNTGERSLSLLNCEEIKSQFEGFVKDIMLNKEETKKENSFEMQKGDQNPQIAAHVISEASSKTTSVLQWAEKGYYTMSNNLVTLENGKQLTVKRQGLYYIYAQVTFCSNREASSQAPFIASLCLKSPGRFERILLRAANTHSSAKPCGQQSIHLGGVFELQPGASVFVNVTDPSQVSHGTGFTSFGLLKL								no induction	no induction	no induction	no induction	no induction	no induction	no induction	no induction	no induction	no induction
